In patent US20160258940A1 (IMRA AMERICA, published 2016):
Primed or numbered codes have the meaning given here. Ends that are not written are not given here. FITC′ = fluorescein isothiocyanate

Target: T1, EpCAM (epithelial cell adhesion molecule) on the surface of HT29 colon cancer cells (UniProt P16422 24-314, limits assumed)
T1 construct: whole, on cells; HT29 is a human cell line
T1 sequence (looked up): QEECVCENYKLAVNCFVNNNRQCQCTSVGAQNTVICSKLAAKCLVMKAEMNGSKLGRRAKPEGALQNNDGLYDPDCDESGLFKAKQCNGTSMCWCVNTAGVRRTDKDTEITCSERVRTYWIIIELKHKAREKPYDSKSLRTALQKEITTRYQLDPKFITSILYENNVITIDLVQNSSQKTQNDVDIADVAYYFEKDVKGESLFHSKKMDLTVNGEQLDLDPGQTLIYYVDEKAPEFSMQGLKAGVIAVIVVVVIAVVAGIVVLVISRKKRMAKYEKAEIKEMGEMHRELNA
Test: confocal fluorescence microscopy of HT29 spheroids with FITC-Ep114/PEG/gold nanoparticles (PEG ratios 100/1, 200/1, 300/1)
Procedure: A colon cancer cell line HT29 was used to conduct a cellular uptake test. First, by using 96 holes type culture plate for spheroids, EZ-Sphere™ (Asahi Glass Co., Ltd.), spheroid of HT29 cells was formed.
Specifically, HT29, 4×10⁵ cells were suspended in a culture medium in which 20 ng/ml of human EGF (manufactured by Miltenyi Biotec, K.K.), 20 ng/ml of human FGF-2 (manufactured by Miltenyi Biotec K.K.), 1/50 amount of B-27 supplement×50 (manufactured by GIBCO), and 1/100 amount of Penicillin-Streptomycin Solution×100 (manufactured by Wako Pure Chemical Industries, Ltd.) were added to 3 ml of D-MEM/F-12 medium (Dulbecco's Modified Eagle Medium: Nutrient Mixture F-12 1:1 Mixture, manufactured by GIBCO). The suspension was dispensed to each well of 200 μl, and was cultured in CO₂ incubator at 37° C. for 72 hours.
Then, a part of the spheroids (approximately 20 μl) and the gold particle-peptide complex were placed on a glass bottom dish (D110300, Matsunami Glass Ind., Ltd.), and irradiated laser of 488 nm with 40 magnification objective lens by using an inverted confocal laser microscope (FLUOVIEW FV1000IX81 type, manufactured by Olympus Corporation), and observed using a filter for Alexa488.

B1: EpCAM-binding peptide Ep114 (FITC-labelled), bound to PEG-covered gold nanoparticles (peptide)
peptide: {FITC′}-KHLQCVRNICWSGGK
modifications: cysteine pairing not given here; also: bound to PEG-covered gold nanoparticles
notes: In the assay the peptide covered approx. 15 nm gold nanoparticles that were partially covered with mPEG-SH 5k (PEG:particle ratios 100/1, 200/1, 300/1; 2000 peptides per particle); also called EP114 peptide
B1: binds.
